Measured values as given in patent US20200407435A1 (Boehringer Ingelheim, published 2020).
Where a chain is given by its changes, count along the chain named. Several values for one entry are separate records, joined by “and”; a condition that tells them apart may be missing. Identical values can stand only once.

B1: Nesvacumab analog (Regeneron) (antibody, V domains shown)
VH: EVQLVESGGGLVQPGGSLRLSCAASGFTFSSYDIHWVRQATGKGLEWVSAIGPAGDTYYPGSVKGRFTISRENAKNSLYLQMNSLRAGDTAVYYCARGLITFGGLIAPFDYWGQGTLVTVSS
VL: EIVLTQSPGTLSLSPGERATLSCRASQSVSSTYLAWYQQKPGQAPRLLIYGASSRATGIPDRFSGSGSGTDFTLTISRLEPEDFAVYYCQHYDNSQTFGQGTKVEIKR
notes: also called analog of REGN910 (nesvacumab); Nevescumab analog
B2: ANGPT2-opt-31 (humanized) (antibody, human IgG1, kappa, V domains shown)
VH: QVQLVQSGAEVKKPGSSVKVSCKASGYIFIDYFINWVRQAPGQGLEWMGKIGPGSGSSSSNEKFKGRVTITADKSTSTAYMELSSLRSEDTAVYYCAREAFDYDGDYYGMAYWGQGTLVTVSS
VL: EIVMTQSPATLSVSPGERATLSCKSSQSLLSSGNQKSFLAWYQQKPGQAPRLLIYGASTRESGIPARFSGSGSGTEFTLTISSLQSEDFAVYYCQNDHSYPITFGQGTKLEIKR
notes: also called Ang2-opt-31
B3: ANGPT2-opt-19 (humanized) (antibody, human IgG1, kappa, V domains shown)
VH: B2 VH
VL: B2 VL with K24R, S25A, L29V, S62T, N96Q
notes: also called Ang2-opt-19
B4: ANGPT2-opt-2 (humanized) (antibody, human IgG1, kappa, V domains shown)
VH: B2 VH with D31E, D104E
VL: B2 VL with S31A, S37N
notes: also called Ang2-opt-2; ANGP12-opt-2
B5: ANGPT2-opt-1 (humanized) (antibody, human IgG1, kappa, V domains shown)
VH: B2 VH with D104E
VL: B2 VL with S31A, S37N
notes: also called Ang2-opt-1
B6: chimeric lead CL-209881 (antibody, V domains shown)
VH: QVQLKQSGAELVKPGSSVKISCRASGYIFIDYFINWVKQRPGQGLEWIGKIGPGSGSSSSNEKFKGKATLTADKSSSTAYMQLSSLTSEDSAVYFCAREAFDYDGDYYGMAYWGQGTSVTVSS
VL: DIVMTQSPSSLSVSAGEKVTMSCKSSQSLLNSGNQKNFLAWYQQKPGQPPKLLIYGASTRESGVPDRFTGSGSGTDFTLTITSVQAEDLAVYYCQNDHSYPITFGSGTKLEIK
notes: Chimeric antibody with murine variable domains; the constant regions of the tested antibody are not
B7: MEDI3617 analog (Medimmune) (antibody, human IgG1, kappa, V domains shown)
VH: QVQLVESGGGVVQPGRSLRLSCAASGFTFTNYGMHWVRQAPGKGLEWVAVISHDGNNKYYVDSVKGRFTISRDNSKNTLYLQMNSLRAEDTAVYYCAREGIDFWSGLNWFDPWGQGTLVTVSS
VL: EIVLTQSPGTLSLSPGERATLSCRASQSITGSYLAWYQQKPGQAPRLLITGASSWATGIPDRFSGSGSGTDFTLTISRLEPEDFAVYYCQQYSSSPITFGQGTRLEIKR
notes: Based on the description in U.S. Pat. No. 8,507,656; also called MED3617 analog; analog of MED3617
B8: LC06 (Roche) (antibody, human IgG1, lambda, V domains shown)
VH: not shown
VL: QPGLTQPPSVSVAPGQTARITCGGNNIGSKSVHWYQQKPGQAPVLVVYDDSDRPSGIPERFSGSNSGNTATLTISRVEAGDEADYYCQVWDSSSDHYVFGTGTKVTVLG
notes: Based on the description in U.S. Pat. No. 9,340,609

Experiments:
[1] = target: T1, rat ANGPT2 (rat, UniProt O35462 275-496, limits assumed); experiment: SPR (ProteOn XPR36), antibody captured on Protein A/G, rat ANGPT2 as analyte
T1 construct: domain: FLD domain; also called rat ANGPT2 FLD domain
T1 sequence (looked up): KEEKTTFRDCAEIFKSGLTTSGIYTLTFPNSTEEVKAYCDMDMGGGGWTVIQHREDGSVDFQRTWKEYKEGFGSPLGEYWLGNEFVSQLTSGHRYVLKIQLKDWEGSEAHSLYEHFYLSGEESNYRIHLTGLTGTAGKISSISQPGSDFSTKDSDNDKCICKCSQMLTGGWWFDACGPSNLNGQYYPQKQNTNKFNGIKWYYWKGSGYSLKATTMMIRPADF
Procedure: (§1) The binding affinity to the various ANGPT2 analytes is determined by surface plasmon resonance (SPR) using a ProteOn XPR36 (Bio-Rad). Unless otherwise stated, all reagents are obtained from Bio-Rad. The running buffer for all assays and dilutions (except where stated) is phosphate buffered saline (PBS)/ethylenediamine tetraacetic acid (EDTA) with 0.01% Tween20 (PBS-T-EDTA). PBS-T-EDTA is prepared by adding 100 μl of 100% Tween20 to 2 L of PBS-T-EDTA with an initial concentration of 0.005% Tween20 to make a final Tween20 concentration of 0.01%. The general linearized model (GLM) sensorchip is normalized, pre-conditioned, and activated with an equal mixture of 1-ethyl-3-[3-dimethylaminopropyl]carbodiimide (EDC)/N-hydroxysulfosuccinimide (s-NHS) in the horizontal direction for 300 sec at a flow rate of 30 μl/min. Immobilization is then is done with Recombinant Protein A/G (Thermo Scientific) (60 μg/ml in 10 mM acetate pH 4.5) in the horizontal direction for 300 sec at a flowrate of 30 μl/min resulting in about 4370-4875 response units (RUs) of Protein A/G on the surface. The sensorchip is then deactivated with 1M ethanolamine HCl in the horizontal direction for 300 sec at a flowrate of 30 μl/min. The sensorchip is stabilized with 18 sec of 0.85% phosphoric acid at a flowrate of 100 μl/min 3 times horizontally and 3 times vertically.
Each ANGPT2 antibody is captured on the Protein A/G surface vertically for 300 sec at a flowrate of 30 μl/min resulting in a capture level of about 2500 RU. The baseline is stabilized by injecting PBS-T-EDTA for 60 sec at a flowrate of 100 μl/min horizontally with dissociation of 120 sec. The analyte (e.g., HuANGPT2) is injected horizontally over the captured antibody for 300 sec at a flowrate of 30 μl/min and a dissociation for 1800 sec. […] The surface is regenerated by injecting 0.85% phosphoric acid for 18 sec at a flowrate of 100 μl/min one time horizontally and one time vertically. PBS-T-EDTA is injected for 60 sec at a flowrate of 100 μl/min one time vertically and one time horizontally. […]

[2] = target: T2, rhAngiopoietin-2 (R&D systems cat 623-AN/CF) (human, UniProt O15123 19-496, limits assumed); experiment: cell-based or functional assay
T2 sequence (looked up): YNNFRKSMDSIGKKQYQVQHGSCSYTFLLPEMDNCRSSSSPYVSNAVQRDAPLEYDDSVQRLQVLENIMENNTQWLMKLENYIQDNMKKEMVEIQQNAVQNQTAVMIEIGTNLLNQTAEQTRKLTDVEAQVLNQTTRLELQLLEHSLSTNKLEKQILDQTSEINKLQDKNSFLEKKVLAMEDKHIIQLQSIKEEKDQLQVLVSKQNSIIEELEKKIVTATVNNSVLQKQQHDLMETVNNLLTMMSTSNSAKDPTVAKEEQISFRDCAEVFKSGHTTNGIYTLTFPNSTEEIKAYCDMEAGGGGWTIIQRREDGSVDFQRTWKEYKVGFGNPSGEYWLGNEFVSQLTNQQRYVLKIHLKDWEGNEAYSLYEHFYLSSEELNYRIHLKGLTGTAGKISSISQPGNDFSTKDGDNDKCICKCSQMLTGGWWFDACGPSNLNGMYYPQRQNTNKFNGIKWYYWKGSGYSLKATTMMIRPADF

[3] = target: T3, human ANGPT2 (SPR analyte) (human, UniProt O15123 275-496, limits assumed); experiment: SPR (ProteOn XPR36), antibody captured on Protein A/G, ANGPT2 as analyte, 1:1 Langmuir fit
T3 construct: domain: FLD domain; also called HuANGPT2; human ANGPT2 FLD domain
T3 sequence (looked up): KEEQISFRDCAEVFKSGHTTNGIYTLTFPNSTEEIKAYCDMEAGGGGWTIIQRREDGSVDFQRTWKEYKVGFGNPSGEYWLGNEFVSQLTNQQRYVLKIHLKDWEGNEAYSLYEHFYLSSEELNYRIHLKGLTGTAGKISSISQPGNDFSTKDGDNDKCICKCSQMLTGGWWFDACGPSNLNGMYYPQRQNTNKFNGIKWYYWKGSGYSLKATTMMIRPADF
Procedure: as §1
(§2) Each ANGPT2 antibody is captured on the Protein A/G surface vertically for 300 sec at a flowrate of 30 μl/min resulting in a capture level of about 2500 RU. The baseline is stabilized by injecting PBS-T-EDTA for 60 sec at a flowrate of 100 μl/min horizontally with dissociation of 120 sec. The analyte (e.g., HuANGPT2) is injected horizontally over the captured antibody for 300 sec at a flowrate of 30 μl/min and a dissociation for 1800 sec. […] The surface is regenerated by injecting 0.85% phosphoric acid for 18 sec at a flowrate of 100 μl/min one time horizontally and one time vertically. PBS-T-EDTA is injected for 60 sec at a flowrate of 100 μl/min one time vertically and one time horizontally.
(§3) The interspot (interactions with sensor surface) and blank (PBS-T-EDTA with 0.01% Tween20 or 0 nM of analyte (here HuANGPT2)) are subtracted from the raw data.

[4] = target: T4, cynomolgus (cyno) ANGPT2 (cynomolgus, UniProt A0A2K5VNX6 275-496); experiment: as above
T4 construct: domain: FLD domain; also called cyno ANGPT2 FLD domain
T4 sequence: T3 sequence (looked up) with E2G, I23V, F28L, I35V, G154A, A212G, D221G
Procedure: as §1, §2, §3

[5] = target: T5, Human ANGPT2 Dimer (CC-FLD) (human, UniProt O15123 74-496, limits assumed); experiment: flow cytometry blocking assay: antibody titrated against His-tagged human ANGPT2 dimer (CC-FLD) binding to HEK293 human Tie2 cells
T5 construct: domain: CC-FLD; also called ANGPT2 protein with His-tag; not shown: His-tag
T5 sequence (looked up): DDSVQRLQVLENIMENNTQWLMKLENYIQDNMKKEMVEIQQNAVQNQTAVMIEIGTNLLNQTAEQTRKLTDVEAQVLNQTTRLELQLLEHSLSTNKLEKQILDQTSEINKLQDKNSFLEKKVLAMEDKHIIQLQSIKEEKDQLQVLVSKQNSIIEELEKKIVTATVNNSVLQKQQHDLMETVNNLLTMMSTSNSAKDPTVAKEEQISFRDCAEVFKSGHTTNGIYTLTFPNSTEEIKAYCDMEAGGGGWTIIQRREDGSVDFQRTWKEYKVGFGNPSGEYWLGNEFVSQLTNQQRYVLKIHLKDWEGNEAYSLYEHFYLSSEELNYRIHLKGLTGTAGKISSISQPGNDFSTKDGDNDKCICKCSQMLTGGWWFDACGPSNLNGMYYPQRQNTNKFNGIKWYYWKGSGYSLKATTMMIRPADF
Procedure: Human ANGPT2 Dimer (CC-FLD) is pre-incubated with the testing antibodies. The ANGPT2/Antibody mixture is then incubated with HEK293 human Tie2 cells at 4° C. After washing, the cells are stained with anti-His-AF647 (from GenScript) for detection of the His-tag on the ANGPT2 protein. The binding of the secondarily labelled ANGPT2 to human Tie2 cells is detected by FLOW cytometry. The average of the duplicate values for each concentration point is used to derive the curve fit graphs. Antibodies that prevent ANGPT2 from binding to the Tie2 cells are considered blocking antibodies. The results are shown in FIGS. 3A-3G and the EC50 values are shown in Table 5 based on the average of duplicate values.

Binder	Kd [1] [nM]	Tie2 phosphorylation functional assay, EC50 [2]	Kd [3] [nM]	koff [3] [s⁻¹]	kon [3] [M⁻¹ s⁻¹]	Kd [4] [nM]	koff [4] [s⁻¹]	kon [4] [M⁻¹ s⁻¹]	EC50 [5] [nM]
B1	0.159								
B2		3.8 nM and 4.4 nM	0.091	1.14e-05	125000	0.145	1.96e-05	135000	13
B3	≥ 118	5 nM and 4.6 nM	0.712	5.83e-05	81800	0.844	7.4e-05	87700	15.1
B4	≥ 118	1.8 nM and 1.9 nM	0.649	8.11e-05	125000	0.626	8.45e-05	135000	14.8
B5		3 nM and 3.2 nM	0.294	4.25e-05	144000	0.36	5.48e-05	152000	13.2
B6			0.155	2.34e-05	151000	0.24	3.93e-05	164000	
B7		2.7 nM	27	0.0166	614000				
B8		1.3 nM	12						
